From the supplement of paper PMC10567573

B1: CSTF3 (parent)
chain: YVPEKVKKAEKKLEENPYDLDAWS

Variants of: B1
Test: protein stability index of a GFP-peptide fusion (GPS, HEK-293T) (PSI 1-6); higher = more stable
Conditions: c terminus: a fixed tail appended
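Further: lentivirally expressed fusions sorted by FACS into six bins by GFP to DsRed ratio, PSI derived from sequencing read proportions per bin multiplied by bin number.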

**Q.** Which protein stability index does the source give for YVREKVKKAEKKLEENPYDLDAWS here?
**A.** 2.44

**Q.** Which protein stability index does the source give for YVQEKVKKAEKKLEENPYDLDAWS here?
**A.** 1.89

**Q.** For YCPEKVKKAEKKLEENPYDLDAWS, which protein stability index is on record?
**A.** 2.32

**Q.** With YRPEKVKKAEKKLEENPYDLDAWS as the variant, how does the protein stability index read?
**A.** 4.48

**Q.** Which protein stability index does the source give for YQPEKVKKAEKKLEENPYDLDAWS here?
**A.** 4.07

**Q.** Which protein stability index does the source give for YLPEKVKKAEKKLEENPYDLDAWS here?
**A.** 4.51

**Q.** For YTPEKVKKAEKKLEENPYDLDAWS, which protein stability index is on record?
**A.** 3.18

**Q.** For YEPEKVKKAEKKLEENPYDLDAWS, which protein stability index is on record?
**A.** 4.84

**Q.** Which protein stability index does the source give for YMPEKVKKAEKKLEENPYDLDAWS here?
**A.** 3.92

**Q.** Which protein stability index does the source give for YHPEKVKKAEKKLEENPYDLDAWS here?
**A.** 2.25

**Q.** With YSPEKVKKAEKKLEENPYDLDAWS as the variant, how does the protein stability index read?
**A.** 4.67

**Q.** Which protein stability index does the source give for YGPEKVKKAEKKLEENPYDLDAWS here?
**A.** 4.5

**Q.** With YIPEKVKKAEKKLEENPYDLDAWS as the variant, how does the protein stability index read?
**A.** 2.33

**Q.** With YKPEKVKKAEKKLEENPYDLDAWS as the variant, how does the protein stability index read?
**A.** 4.25

**Q.** With YWPEKVKKAEKKLEENPYDLDAWS as the variant, how does the protein stability index read?
**A.** 3.94

**Q.** For YYPEKVKKAEKKLEENPYDLDAWS, which protein stability index is on record?
**A.** 4.37

**Q.** With YFPEKVKKAEKKLEENPYDLDAWS as the variant, how does the protein stability index read?
**A.** 4.31

**Q.** With YDPEKVKKAEKKLEENPYDLDAWS as the variant, how does the protein stability index read?
**A.** 4.2

**Q.** For YPPEKVKKAEKKLEENPYDLDAWS, which protein stability index is on record?
**A.** 3.87

**Q.** Which protein stability index does the source give for YNPEKVKKAEKKLEENPYDLDAWS here?
**A.** 4.47

**Q.** Which protein stability index does the source give for YAPEKVKKAEKKLEENPYDLDAWS here?
**A.** 1.92

**Q.** For YVPVKVKKAEKKLEENPYDLDAWS, which protein stability index is on record?
**A.** 2.69

**Q.** Which protein stability index does the source give for YVPHKVKKAEKKLEENPYDLDAWS here?
**A.** 2.44

**Q.** For YVPAKVKKAEKKLEENPYDLDAWS, which protein stability index is on record?
**A.** 3.03

**Q.** With YVPMKVKKAEKKLEENPYDLDAWS as the variant, how does the protein stability index read?
**A.** 1.9

**Q.** For YVPWKVKKAEKKLEENPYDLDAWS, which protein stability index is on record?
**A.** 2.28

**Q.** With YVPNKVKKAEKKLEENPYDLDAWS as the variant, how does the protein stability index read?
**A.** 2.19

**Q.** For YVPTKVKKAEKKLEENPYDLDAWS, which protein stability index is on record?
**A.** 2.56

**Q.** With YVPGKVKKAEKKLEENPYDLDAWS as the variant, how does the protein stability index read?
**A.** 2.58

**Q.** For YVPPKVKKAEKKLEENPYDLDAWS, which protein stability index is on record?
**A.** 2.3

**Q.** For YVPKKVKKAEKKLEENPYDLDAWS, which protein stability index is on record?
**A.** 3.35

**Q.** For YVPYKVKKAEKKLEENPYDLDAWS, which protein stability index is on record?
**A.** 3.67

**Q.** Which protein stability index does the source give for YVPQKVKKAEKKLEENPYDLDAWS here?
**A.** 3.41

**Q.** For YVPRKVKKAEKKLEENPYDLDAWS, which protein stability index is on record?
**A.** 2.8

**Q.** With YVPSKVKKAEKKLEENPYDLDAWS as the variant, how does the protein stability index read?
**A.** 1.62

**Q.** For YVPIKVKKAEKKLEENPYDLDAWS, which protein stability index is on record?
**A.** 2.8

**Q.** With YVPFKVKKAEKKLEENPYDLDAWS as the variant, how does the protein stability index read?
**A.** 2.49

**Q.** With YVPCKVKKAEKKLEENPYDLDAWS as the variant, how does the protein stability index read?
**A.** 2.43

**Q.** For LVPEKVKKAEKKLEENPYDLDAWS, which protein stability index is on record?
**A.** 4.43

**Q.** With GVPEKVKKAEKKLEENPYDLDAWS as the variant, how does the protein stability index read?
**A.** 5.31

**Q.** With PVPEKVKKAEKKLEENPYDLDAWS as the variant, how does the protein stability index read?
**A.** 5.24

**Q.** For RVPEKVKKAEKKLEENPYDLDAWS, which protein stability index is on record?
**A.** 5.17

**Q.** Which protein stability index does the source give for WVPEKVKKAEKKLEENPYDLDAWS here?
**A.** 4.24

**Q.** With NVPEKVKKAEKKLEENPYDLDAWS as the variant, how does the protein stability index read?
**A.** 5.14

**Q.** With FVPEKVKKAEKKLEENPYDLDAWS as the variant, how does the protein stability index read?
**A.** 2.56

**Q.** For HVPEKVKKAEKKLEENPYDLDAWS, which protein stability index is on record?
**A.** 3.9

**Q.** Which protein stability index does the source give for QVPEKVKKAEKKLEENPYDLDAWS here?
**A.** 5.31

**Q.** For EVPEKVKKAEKKLEENPYDLDAWS, which protein stability index is on record?
**A.** 5.59

**Q.** With MVPEKVKKAEKKLEENPYDLDAWS as the variant, how does the protein stability index read?
**A.** 4.81

**Q.** With KVPEKVKKAEKKLEENPYDLDAWS as the variant, how does the protein stability index read?
**A.** 5.08

**Q.** For AVPEKVKKAEKKLEENPYDLDAWS, which protein stability index is on record?
**A.** 5.5

**Q.** With CVPEKVKKAEKKLEENPYDLDAWS as the variant, how does the protein stability index read?
**A.** 4.97

**Q.** For TVPEKVKKAEKKLEENPYDLDAWS, which protein stability index is on record?
**A.** 4.88

**Q.** Which protein stability index does the source give for DVPEKVKKAEKKLEENPYDLDAWS here?
**A.** 5.2

**Q.** For IVPEKVKKAEKKLEENPYDLDAWS, which protein stability index is on record?
**A.** 4.63

**Q.** For VVPEKVKKAEKKLEENPYDLDAWS, which protein stability index is on record?
**A.** 4.97

**Q.** Which protein stability index does the source give for SVPEKVKKAEKKLEENPYDLDAWS here?
**A.** 5.23

**Q.** Which protein stability index does the source give for YVPEKVKKYEKKLEENPYDLDAWS here?
**A.** 3.21

**Q.** Which protein stability index does the source give for YVPEKVKKHEKKLEENPYDLDAWS here?
**A.** 2.85

**Q.** For YVPEKVKKEEKKLEENPYDLDAWS, which protein stability index is on record?
**A.** 1.96

**Q.** With YVPEKVKKWEKKLEENPYDLDAWS as the variant, how does the protein stability index read?
**A.** 3.31

**Q.** For YVPEKVKKIEKKLEENPYDLDAWS, which protein stability index is on record?
**A.** 2.59

**Q.** With YVPEKVKKGEKKLEENPYDLDAWS as the variant, how does the protein stability index read?
**A.** 3.46

**Q.** For YVPEKVKKSEKKLEENPYDLDAWS, which protein stability index is on record?
**A.** 2.27

**Q.** With YVPEKVKKKEKKLEENPYDLDAWS as the variant, how does the protein stability index read?
**A.** 2.59

**Q.** Which protein stability index does the source give for YVPEKVKKTEKKLEENPYDLDAWS here?
**A.** 2.66

**Q.** Which protein stability index does the source give for YVPEKVKKQEKKLEENPYDLDAWS here?
**A.** 2.11

**Q.** With YVPEKVKKCEKKLEENPYDLDAWS as the variant, how does the protein stability index read?
**A.** 2.11

**Q.** Which protein stability index does the source give for YVPEKVKKMEKKLEENPYDLDAWS here?
**A.** 2.16

**Q.** Which protein stability index does the source give for YVPEKVKKLEKKLEENPYDLDAWS here?
**A.** 2.32

**Q.** For YVPEKVKKPEKKLEENPYDLDAWS, which protein stability index is on record?
**A.** 4.02

**Q.** Which protein stability index does the source give for YVPEKVKKVEKKLEENPYDLDAWS here?
**A.** 2.64

**Q.** Which protein stability index does the source give for YVPEKVKKFEKKLEENPYDLDAWS here?
**A.** 3.1

**Q.** With YVPEKVKKDEKKLEENPYDLDAWS as the variant, how does the protein stability index read?
**A.** 1.65

**Q.** For YVPEKVKKREKKLEENPYDLDAWS, which protein stability index is on record?
**A.** 3.47

**Q.** For YVPEEVKKAEKKLEENPYDLDAWS, which protein stability index is on record?
**A.** 1.77

**Q.** Which protein stability index does the source give for YVPEAVKKAEKKLEENPYDLDAWS here?
**A.** 1.62

**Q.** For YVPEPVKKAEKKLEENPYDLDAWS, which protein stability index is on record?
**A.** 2.55

**Q.** Which protein stability index does the source give for YVPEHVKKAEKKLEENPYDLDAWS here?
**A.** 2.28

**Q.** With YVPERVKKAEKKLEENPYDLDAWS as the variant, how does the protein stability index read?
**A.** 2.72

**Q.** Which protein stability index does the source give for YVPEGVKKAEKKLEENPYDLDAWS here?
**A.** 2.25

**Q.** Which protein stability index does the source give for YVPEVVKKAEKKLEENPYDLDAWS here?
**A.** 2.32

**Q.** With YVPEQVKKAEKKLEENPYDLDAWS as the variant, how does the protein stability index read?
**A.** 2.73

**Q.** For YVPENVKKAEKKLEENPYDLDAWS, which protein stability index is on record?
**A.** 3.5

**Q.** Which protein stability index does the source give for YVPEWVKKAEKKLEENPYDLDAWS here?
**A.** 2.45

**Q.** Which protein stability index does the source give for YVPEYVKKAEKKLEENPYDLDAWS here?
**A.** 3.04

**Q.** With YVPEIVKKAEKKLEENPYDLDAWS as the variant, how does the protein stability index read?
**A.** 2.95

**Q.** With YVPEMVKKAEKKLEENPYDLDAWS as the variant, how does the protein stability index read?
**A.** 2.04

**Q.** With YVPELVKKAEKKLEENPYDLDAWS as the variant, how does the protein stability index read?
**A.** 2.07

**Q.** For YVPETVKKAEKKLEENPYDLDAWS, which protein stability index is on record?
**A.** 2.93

**Q.** With YVPECVKKAEKKLEENPYDLDAWS as the variant, how does the protein stability index read?
**A.** 2.71

**Q.** With YVPESVKKAEKKLEENPYDLDAWS as the variant, how does the protein stability index read?
**A.** 3.44

**Q.** For YVPEFVKKAEKKLEENPYDLDAWS, which protein stability index is on record?
**A.** 2.19

**Q.** Which protein stability index does the source give for YVPEDVKKAEKKLEENPYDLDAWS here?
**A.** 1.9
